Measurements from patent US20230212294A1.
Residue numbers refer to the chain shown, from its start.

B1: IL-P6-C08 (antibody, V domains shown)
VH: EVKLVESGGDLVKPGGSLKLSCAASGFTFSSYGMSWVRQTSDKRLEWVATISGGGRYTYYPDSVKGRFTISRDSSKNTLYLQMSSLKSEDTAMYYCVRHYDGYLDYWGLGTTLTVSS
VL: DIQMIQSPASLSASVGETVTITCRASENIYSYLAWYQQKQGKSPQLLVYNAKTLAEGVPSRFSGSGSGTQFSLKINSLQPEDFGSYYCQHHYGTPPYTFGGGTKLEIK
B2: IL-P5-B01 (antibody, V domains shown)
VH: EVQLQESGPSLVKPSQTLSLTCSVTGDSITSGSWNWIRKFPGNKLEYMGYISYSGSIYYNPSLKSRISITRDTSKNQYYLQLNSVTTEDTATYYCARGNPAWFAYWGQGTLVTVSA
VL: DIVMTQSQKFMSTSVGDRVSVTCKASQNVGTNVAWYQQKPGQSPKALIYSASYRYSGVPDRFTGSGSGTDFTLTISNVQSEDLAEYFCQQYNSYPYTFGGGTKLEIK
B3: IL-P7-A06 (antibody, V domains shown)
VH: QVQLQQSGPEVVRPGVSVKISCKGSGYTFTDYAMHWVKQSHAKSLEWIGIINTYNGNTNYNQKFKGKATMTVDKSSSTAYMEFARLTSEDSAIYYCARSRGPWDRYFDVWGAGTTVTVSS
VL: B2 VL with N32A, A46L, Y53N, S56T, V78M, E85D, N92S, Y96F, G100S
B4: IL-P6-D06 (antibody, V domains shown)
VH: QVQLQQSGPELVRPGVSVKISCKGSGYTFTDYAIHWVKQSHAKSLEWIGVINTYSGNTNYNQKFKGRATMTVDKSSSTAYMELARLTSEDSAIYFCARGVTYGSGYPYWYFDVWGAGTTVTVSS
VL: B2 VL
B5: IL-P6-C11 (antibody, V domains shown)
VH: EVQLQQSGPELVKPGASVRISCKTSGYTFTDYVIHWVKQNHGGSLEWIGGINRDSGGTTYNQKFQDKVTLTVDKSSNTAYMELRSLTSEDSAVYYCTKWKFPWYFDVWGAGTTVTVSS
VL: DIELTQSPAIMSASPGEKVTMTCSASSSISYMHWYQQKPGTSPKRWIYDTSKLASGVPARFSGSGSGTSYSLTISRVEAEDAATYYCQQWSSNPLTFGSGTKLEIK
B6: IL-P6-B07 (antibody, V domains shown)
VH: B5 VH with D31E
VL: B5 VL with E3V, I29V, P39S, R76S, V77M, S99A, I105L
B7: IL-P7-C05 (antibody, V domains shown)
VH: EVQLVESGGDLVQPGGSLKLSCAASGFTFSSYGMSWVRQTPDKRLELVATINSNGGTTYYPDSVKGRFTISRDNAKHTLYLQMSSLKSEDTAMYYCTRNEEFRRGLAYWGQGTLVTVSA
VL: DIQMIQSPASLSVSVGETVTITCRASENIYSNLAWYQQKQGKSPQLLVYAATNLADGVPSRFSGSGSGTQYSLKINSLQSEDFGSYYCQHFWGTPPWTFGGGTKLEIK
B8: IL-P7-C05-H1L1 (antibody, V domains shown)
VH: B7 VH with D10G, K19R, T40A, D42G, R44G, K87R, S88A, M93V, A119S
VL: DIQMTQSPSSLSASVGDRVTITCRASENIYSNLAWYQQKPGKAPKLLVYAATNLADGVPSRFSGSGSGTDYTLTISSLQPEDFATYYCQHFWGTPPWTFGQGTKLEIK
B9: IL-P5-C06-H2L2 (antibody, V domains shown)
VH: QVQLVQSGAEVKKPGASVKVSCKGSGYTFTDYAIHWGRQAPGQGLEWIGIINTYNGNSNYAQKFQGRATMTRDTSTSTAYMELSRLRSEDTAVYYCARNYGSSFNWYFDVWGQGTTVTVSS
VL: DIQLTQSPSSLSASVGDRITITCRASSSISSNYLHWYQQKPGKAPKLLIYSTSNLASGVPSRFSGSGSGTDFTLTISSVQPEDFATYYCQQYSGYPLTFGQGTKLELK
B10: IL-P5-C06-H2L4 (antibody, V domains shown)
VH: B9 VH
VL: B9 VL with L4M, I19V, A56Q, V79L
B11: IL-P5-C06-H1L3 (antibody, V domains shown)
VH: B9 VH with G37A, R72V, T74K
VL: B9 VL with I19V, V79L
B12: IL-P5-C06-H3L3 (antibody, V domains shown)
VH: B9 VH with G24A, I48M, A68V
VL: B9 VL with I19V, V79L
B13: IL-P5-C06-H2L3 (antibody, V domains shown)
VH: B9 VH
VL: B9 VL with I19V, V79L
B14: IL-P5-C06-H1L4 (antibody, V domains shown)
VH: B9 VH with G37A, R72V, T74K
VL: B9 VL with L4M, I19V, A56Q, V79L
B15: IL-P5-C06-H3L4 (antibody, V domains shown)
VH: B9 VH with G24A, I48M, A68V
VL: B9 VL with L4M, I19V, A56Q, V79L
B16: IL-P5-C06-H1L1 (antibody, V domains shown)
VH: B9 VH with G37A, R72V, T74K
VL: B9 VL with L11M, A44S, F72Y
B17: IL-P5-C06 (antibody, V domains shown)
VH: QVQLQQSGPELVRPGVSVKISCKGSGYTFTDYAIHWAKQGHAKSLEWIGIINTYNGNSNYNQNFKGKATMTVDKSSSTAYMELTRLTSEDSAIYYCARNYGSSFNWYFDVWGQGTTLTVSS
VL: DIVLTQSPTTMAASPGEKITITCSASSSISSNYLHWYQQKPGFSPKLLIYSTSNLASGVPARFSGSGSGTSYSLTISSVEAEDAATYYCQQYSGYPLTFGAGTKLELK
B18: IL-P7-C05-H4L3 (antibody, V domains shown)
VH: EVQLVESGGGLVQPGGSLRLSCAASGFTFSSYAMSWVRQAPGKGLELVAAINSNGGSTYYADSVKGRFTISRDNAKNTLYLQMSSLRAEDTAVYYCTRNEEFRRGLAYWGQGTLVTVSS
VL: B8 VL with V48I, T52S, A55Q, D56S
B19: IL-P7-C05-H4L1 (antibody, V domains shown)
VH: B18 VH
VL: B8 VL
B20: IL-P7-C05-H3L1 (antibody, V domains shown)
VH: B18 VH with A33G
VL: B8 VL
B21: IL-P7-C05-H3L3 (antibody, V domains shown)
VH: B18 VH with A33G
VL: B8 VL with V48I, T52S, A55Q, D56S
B22: IL-P7-C05-H2L1 (antibody, V domains shown)
VH: B18 VH with A33G, A50T, S57T
VL: B8 VL
B23: IL-P7-C05-H2L2 (antibody, V domains shown)
VH: B18 VH with A33G, A50T, S57T
VL: B8 VL with A55Q, D56S

What was measured:
Human B7-H3-his (human) [1] = biological target: Human B7-H3-his (human) (UniProt Q5ZPR3); test: ELISA, antigen coated at 2 µg/mL
Human B7-H3-his (human) [2] = biological target: Human B7-H3-his (human) (UniProt Q5ZPR3); test: ELISA, human B7-H3 at protein level (second run)

Binder	EC50 (Human B7-H3-his (human) [1]) [µg/mL]	EC50 (Human B7-H3-his (human) [2]) [µg/mL]
B1	0.0424	0.088
B2	0.137	0.248
B3	0.195	0.172
B4	0.174	0.233
B5	0.23	0.182
B6	0.132	0.194
B7	0.0788	0.044
B8	–	0.053
B9	–	0.147
B10	–	0.223
B11	–	0.164
B12	–	0.151
B13	–	0.151
B14	–	0.237
B15	–	0.156
B16	–	0.206
B17	0.177	0.302
B18	–	0.0395
B19	–	0.035
B20	–	0.026
B21	–	0.071
B22	–	0.111
B23	–	0.051
